Measurements from patent US20150344540A1, “NOVEL GLP-1 RECEPTOR AGONISTS WITH CHOLESTEROL EFFLUX ACTIVITY” (NOVO NORDISK A/S, priority 2012, published 2015).
Where no end group is shown, it is not given here. [ ]: non-standard residue; d: D form. Aib = CC(C)(N)C(=O)O

Biological target: human GLP-1 receptor (human, UniProt P43220)
Experiment: cell-based or functional assay

B1: [Aib8,Glu23,Val25,Glu34,Lys35,Val36,Lys37]-GLP-1-(7-37)-peptidyl-Asp-Phe-Leu amide (peptide)
peptide: H[Aib]EGTFTSDVSSYLEGEAVKEFIAWLVEKVKDFL-NH2
modifications: N-terminus assumed
SMILES: CC[C@H](C)[C@H](NC(=O)[C@H](Cc1ccccc1)NC(=O)[C@H](CCC(=O)O)NC(=O)[C@H](CCCCN)NC(=O)[C@@H](NC(=O)[C@H](C)NC(=O)[C@H](CCC(=O)O)NC(=O)CNC(=O)[C@H](CCC(=O)O)NC(=O)[C@H](CC(C)C)NC(=O)[C@H](Cc1ccc(O)cc1)NC(=O)[C@H](CO)NC(=O)[C@H](CO)NC(=O)[C@@H](NC(=O)[C@H](CC(=O)O)NC(=O)[C@H](CO)NC(=O)[C@@H](NC(=O)[C@H](Cc1ccccc1)NC(=O)[C@@H](NC(=O)CNC(=O)[C@H](CCC(=O)O)NC(=O)C(C)(C)NC(=O)[C@@H](N)Cc1c[nH]cn1)[C@@H](C)O)[C@@H](C)O)C(C)C)C(C)C)C(=O)N[C@@H](C)C(=O)N[C@@H](Cc1c[nH]c2ccccc12)C(=O)N[C@@H](CC(C)C)C(=O)N[C@H](C(=O)N[C@@H](CCC(=O)O)C(=O)N[C@@H](CCCCN)C(=O)N[C@H](C(=O)N[C@@H](CCCCN)C(=O)N[C@@H](CC(=O)O)C(=O)N[C@@H](Cc1ccccc1)C(=O)N[C@@H](CC(C)C)C(N)=O)C(C)C)C(C)C
CRE luciferase EC50, 0% HSA: 323 pM
CRE luciferase EC50, 1% HSA: 128 pM

B2: [Gly8,Glu22,Glu23,Val25,Glu34,Lys35,Val36,Lys37]-GLP-1-(7-37)-peptidyl-Glu-Lys-Leu amide (peptide)
peptide: HGEGTFTSDVSSYLEEEAVKEFIAWLVEKVKEKL-NH2
CRE luciferase EC50, 0% HSA: 300 pM
CRE luciferase EC50, 1% HSA: 76 pM

B3: [Aib8,Glu23,Val25,Glu34,Lys35,Val36,Lys37]-GLP-1-(7-37)-peptidyl-Gly-Phe-Leu amide (peptide)
peptide: H[Aib]EGTFTSDVSSYLEGEAVKEFIAWLVEKVKGFL-NH2
modifications: N-terminus assumed
SMILES: CC[C@H](C)[C@H](NC(=O)[C@H](Cc1ccccc1)NC(=O)[C@H](CCC(=O)O)NC(=O)[C@H](CCCCN)NC(=O)[C@@H](NC(=O)[C@H](C)NC(=O)[C@H](CCC(=O)O)NC(=O)CNC(=O)[C@H](CCC(=O)O)NC(=O)[C@H](CC(C)C)NC(=O)[C@H](Cc1ccc(O)cc1)NC(=O)[C@H](CO)NC(=O)[C@H](CO)NC(=O)[C@@H](NC(=O)[C@H](CC(=O)O)NC(=O)[C@H](CO)NC(=O)[C@@H](NC(=O)[C@H](Cc1ccccc1)NC(=O)[C@@H](NC(=O)CNC(=O)[C@H](CCC(=O)O)NC(=O)C(C)(C)NC(=O)[C@@H](N)Cc1c[nH]cn1)[C@@H](C)O)[C@@H](C)O)C(C)C)C(C)C)C(=O)N[C@@H](C)C(=O)N[C@@H](Cc1c[nH]c2ccccc12)C(=O)N[C@@H](CC(C)C)C(=O)N[C@H](C(=O)N[C@@H](CCC(=O)O)C(=O)N[C@@H](CCCCN)C(=O)N[C@H](C(=O)N[C@@H](CCCCN)C(=O)NCC(=O)N[C@@H](Cc1ccccc1)C(=O)N[C@@H](CC(C)C)C(N)=O)C(C)C)C(C)C
CRE luciferase EC50, 0% HSA: 129 pM
CRE luciferase EC50, 1% HSA: 32 pM

B4: [Aib8,Glu23,Val25,Glu34,Lys35,Val36,Lys37]-GLP-1-(7-37)-peptidyl-Glu-Lys amide (peptide)
peptide: H[Aib]EGTFTSDVSSYLEGEAVKEFIAWLVEKVKEK-NH2
modifications: N-terminus assumed
SMILES: CC[C@H](C)[C@H](NC(=O)[C@H](Cc1ccccc1)NC(=O)[C@H](CCC(=O)O)NC(=O)[C@H](CCCCN)NC(=O)[C@@H](NC(=O)[C@H](C)NC(=O)[C@H](CCC(=O)O)NC(=O)CNC(=O)[C@H](CCC(=O)O)NC(=O)[C@H](CC(C)C)NC(=O)[C@H](Cc1ccc(O)cc1)NC(=O)[C@H](CO)NC(=O)[C@H](CO)NC(=O)[C@@H](NC(=O)[C@H](CC(=O)O)NC(=O)[C@H](CO)NC(=O)[C@@H](NC(=O)[C@H](Cc1ccccc1)NC(=O)[C@@H](NC(=O)CNC(=O)[C@H](CCC(=O)O)NC(=O)C(C)(C)NC(=O)[C@@H](N)Cc1c[nH]cn1)[C@@H](C)O)[C@@H](C)O)C(C)C)C(C)C)C(=O)N[C@@H](C)C(=O)N[C@@H](Cc1c[nH]c2ccccc12)C(=O)N[C@@H](CC(C)C)C(=O)N[C@H](C(=O)N[C@@H](CCC(=O)O)C(=O)N[C@@H](CCCCN)C(=O)N[C@H](C(=O)N[C@@H](CCCCN)C(=O)N[C@@H](CCC(=O)O)C(=O)N[C@@H](CCCCN)C(N)=O)C(C)C)C(C)C
CRE luciferase EC50, 0% HSA: 43 pM
CRE luciferase EC50, 1% HSA: 14 pM

B5: [Aib8,Glu23,Val25,Lys35,Aib36,Lys37]-GLP-1-(7-37)-peptidyl-Glu-Phe-Leu amide (peptide)
peptide: H[Aib]EGTFTSDVSSYLEGEAVKEFIAWLVKK[Aib]KEFL-NH2
modifications: N-terminus assumed
SMILES: CC[C@H](C)[C@H](NC(=O)[C@H](Cc1ccccc1)NC(=O)[C@H](CCC(=O)O)NC(=O)[C@H](CCCCN)NC(=O)[C@@H](NC(=O)[C@H](C)NC(=O)[C@H](CCC(=O)O)NC(=O)CNC(=O)[C@H](CCC(=O)O)NC(=O)[C@H](CC(C)C)NC(=O)[C@H](Cc1ccc(O)cc1)NC(=O)[C@H](CO)NC(=O)[C@H](CO)NC(=O)[C@@H](NC(=O)[C@H](CC(=O)O)NC(=O)[C@H](CO)NC(=O)[C@@H](NC(=O)[C@H](Cc1ccccc1)NC(=O)[C@@H](NC(=O)CNC(=O)[C@H](CCC(=O)O)NC(=O)C(C)(C)NC(=O)[C@@H](N)Cc1c[nH]cn1)[C@@H](C)O)[C@@H](C)O)C(C)C)C(C)C)C(=O)N[C@@H](C)C(=O)N[C@@H](Cc1c[nH]c2ccccc12)C(=O)N[C@@H](CC(C)C)C(=O)N[C@H](C(=O)N[C@@H](CCCCN)C(=O)N[C@@H](CCCCN)C(=O)NC(C)(C)C(=O)N[C@@H](CCCCN)C(=O)N[C@@H](CCC(=O)O)C(=O)N[C@@H](Cc1ccccc1)C(=O)N[C@@H](CC(C)C)C(N)=O)C(C)C
CRE luciferase EC50, 0% HSA: 921 pM
CRE luciferase EC50, 1% HSA: 276 pM

B6: [Aib8,Glu23,Val25,Glu34,Lys35,Val36,Lys37]-GLP-1-(7-37)-peptidyl-Glu-Glu-Leu amide (peptide)
peptide: H[Aib]EGTFTSDVSSYLEGEAVKEFIAWLVEKVKEEL-NH2
modifications: N-terminus assumed
SMILES: CC[C@H](C)[C@H](NC(=O)[C@H](Cc1ccccc1)NC(=O)[C@H](CCC(=O)O)NC(=O)[C@H](CCCCN)NC(=O)[C@@H](NC(=O)[C@H](C)NC(=O)[C@H](CCC(=O)O)NC(=O)CNC(=O)[C@H](CCC(=O)O)NC(=O)[C@H](CC(C)C)NC(=O)[C@H](Cc1ccc(O)cc1)NC(=O)[C@H](CO)NC(=O)[C@H](CO)NC(=O)[C@@H](NC(=O)[C@H](CC(=O)O)NC(=O)[C@H](CO)NC(=O)[C@@H](NC(=O)[C@H](Cc1ccccc1)NC(=O)[C@@H](NC(=O)CNC(=O)[C@H](CCC(=O)O)NC(=O)C(C)(C)NC(=O)[C@@H](N)Cc1c[nH]cn1)[C@@H](C)O)[C@@H](C)O)C(C)C)C(C)C)C(=O)N[C@@H](C)C(=O)N[C@@H](Cc1c[nH]c2ccccc12)C(=O)N[C@@H](CC(C)C)C(=O)N[C@H](C(=O)N[C@@H](CCC(=O)O)C(=O)N[C@@H](CCCCN)C(=O)N[C@H](C(=O)N[C@@H](CCCCN)C(=O)N[C@@H](CCC(=O)O)C(=O)N[C@@H](CCC(=O)O)C(=O)N[C@@H](CC(C)C)C(N)=O)C(C)C)C(C)C
CRE luciferase EC50, 0% HSA: 25 pM
CRE luciferase EC50, 1% HSA: 16 pM

B7: [Aib8,Glu23,Val25,Glu34,Lys35,Gly36,Lys37]-GLP-1-(7-37)-peptidyl-Glu-Phe-Leu amide (peptide)
peptide: H[Aib]EGTFTSDVSSYLEGEAVKEFIAWLVEKGKEFL-NH2
modifications: N-terminus assumed
SMILES: CC[C@H](C)[C@H](NC(=O)[C@H](Cc1ccccc1)NC(=O)[C@H](CCC(=O)O)NC(=O)[C@H](CCCCN)NC(=O)[C@@H](NC(=O)[C@H](C)NC(=O)[C@H](CCC(=O)O)NC(=O)CNC(=O)[C@H](CCC(=O)O)NC(=O)[C@H](CC(C)C)NC(=O)[C@H](Cc1ccc(O)cc1)NC(=O)[C@H](CO)NC(=O)[C@H](CO)NC(=O)[C@@H](NC(=O)[C@H](CC(=O)O)NC(=O)[C@H](CO)NC(=O)[C@@H](NC(=O)[C@H](Cc1ccccc1)NC(=O)[C@@H](NC(=O)CNC(=O)[C@H](CCC(=O)O)NC(=O)C(C)(C)NC(=O)[C@@H](N)Cc1c[nH]cn1)[C@@H](C)O)[C@@H](C)O)C(C)C)C(C)C)C(=O)N[C@@H](C)C(=O)N[C@@H](Cc1c[nH]c2ccccc12)C(=O)N[C@@H](CC(C)C)C(=O)N[C@H](C(=O)N[C@@H](CCC(=O)O)C(=O)N[C@@H](CCCCN)C(=O)NCC(=O)N[C@@H](CCCCN)C(=O)N[C@@H](CCC(=O)O)C(=O)N[C@@H](Cc1ccccc1)C(=O)N[C@@H](CC(C)C)C(N)=O)C(C)C
CRE luciferase EC50, 0% HSA: 34 pM
CRE luciferase EC50, 1% HSA: 7 pM

B8: [Aib8,Glu22,Glu23,Val25,Glu34,Lys35,Val36,Lys37]-GLP-1-(7-37)-peptidyl-Glu-Leu-Leu amide (peptide)
peptide: H[Aib]EGTFTSDVSSYLEEEAVKEFIAWLVEKVKELL-NH2
modifications: N-terminus assumed
SMILES: CC[C@H](C)[C@H](NC(=O)[C@H](Cc1ccccc1)NC(=O)[C@H](CCC(=O)O)NC(=O)[C@H](CCCCN)NC(=O)[C@@H](NC(=O)[C@H](C)NC(=O)[C@H](CCC(=O)O)NC(=O)[C@H](CCC(=O)O)NC(=O)[C@H](CCC(=O)O)NC(=O)[C@H](CC(C)C)NC(=O)[C@H](Cc1ccc(O)cc1)NC(=O)[C@H](CO)NC(=O)[C@H](CO)NC(=O)[C@@H](NC(=O)[C@H](CC(=O)O)NC(=O)[C@H](CO)NC(=O)[C@@H](NC(=O)[C@H](Cc1ccccc1)NC(=O)[C@@H](NC(=O)CNC(=O)[C@H](CCC(=O)O)NC(=O)C(C)(C)NC(=O)[C@@H](N)Cc1c[nH]cn1)[C@@H](C)O)[C@@H](C)O)C(C)C)C(C)C)C(=O)N[C@@H](C)C(=O)N[C@@H](Cc1c[nH]c2ccccc12)C(=O)N[C@@H](CC(C)C)C(=O)N[C@H](C(=O)N[C@@H](CCC(=O)O)C(=O)N[C@@H](CCCCN)C(=O)N[C@H](C(=O)N[C@@H](CCCCN)C(=O)N[C@@H](CCC(=O)O)C(=O)N[C@@H](CC(C)C)C(=O)N[C@@H](CC(C)C)C(N)=O)C(C)C)C(C)C
CRE luciferase EC50, 0% HSA: 439 pM
CRE luciferase EC50, 1% HSA: 110 pM

B9: [Aib8,Glu23,Val25,Glu30,Glu34,Lys35,Val36,Lys37]-GLP-1-(7-37)-peptidyl-Glu-Lys-Leu amide (peptide)
peptide: H[Aib]EGTFTSDVSSYLEGEAVKEFIEWLVEKVKEKL-NH2
modifications: N-terminus assumed
SMILES: CC[C@H](C)[C@H](NC(=O)[C@H](Cc1ccccc1)NC(=O)[C@H](CCC(=O)O)NC(=O)[C@H](CCCCN)NC(=O)[C@@H](NC(=O)[C@H](C)NC(=O)[C@H](CCC(=O)O)NC(=O)CNC(=O)[C@H](CCC(=O)O)NC(=O)[C@H](CC(C)C)NC(=O)[C@H](Cc1ccc(O)cc1)NC(=O)[C@H](CO)NC(=O)[C@H](CO)NC(=O)[C@@H](NC(=O)[C@H](CC(=O)O)NC(=O)[C@H](CO)NC(=O)[C@@H](NC(=O)[C@H](Cc1ccccc1)NC(=O)[C@@H](NC(=O)CNC(=O)[C@H](CCC(=O)O)NC(=O)C(C)(C)NC(=O)[C@@H](N)Cc1c[nH]cn1)[C@@H](C)O)[C@@H](C)O)C(C)C)C(C)C)C(=O)N[C@@H](CCC(=O)O)C(=O)N[C@@H](Cc1c[nH]c2ccccc12)C(=O)N[C@@H](CC(C)C)C(=O)N[C@H](C(=O)N[C@@H](CCC(=O)O)C(=O)N[C@@H](CCCCN)C(=O)N[C@H](C(=O)N[C@@H](CCCCN)C(=O)N[C@@H](CCC(=O)O)C(=O)N[C@@H](CCCCN)C(=O)N[C@@H](CC(C)C)C(N)=O)C(C)C)C(C)C
CRE luciferase EC50, 0% HSA: 163 pM
CRE luciferase EC50, 1% HSA: 39 pM
